Experimental data taken from US7435574B2 (Degussa AG, priority 2001, dated 2008).

Tests used:
[1] = target: NADH oxidase (NOX) from Lactobacillus brevis DSM 20054, wild type, SEQ ID NO:2 (Levilactobacillus brevis, UniProt Q03Q85); conditions: higher NADH concentrations (up to 0.5 mM); photometric
[2] = pH stability of the NADH oxidase (8 hours incubation in buffers, residual activity); type: physicochemical
Experimental: The pH optimum was measured in the range pH 4.0 to 10.0. Different buffers were used depending on the pH value. As a check on the influence of the buffer, when changing the buffer this pH value was measured twice in the different buffers (pH 7.0 and pH 8.5). 0.1 M citric acid/Na2PO4 was used for the range pH 4.0-7.0, 0.1 M TEA was used for the range 7.0-8.5, and 0.1 M glycine/NaOH was used for the range pH 8.5-10.0.
At pH 8.5 the enzyme is still up to 100% stable after 8 hours in TEA/NaOH buffer as well as in glycine/NaOH buffer. The figure illustrates that the enzyme stable in the slightly alkaline range (pH 8-9) is also stable in a wider range. This range is useful for application purposes if the NADH oxidase for the oxidation is to be coupled with an NAD-dependent dehydrogenase, since the pH optimum of many dehydrogenases for the oxidation lies in a slightly alkaline range.

[3] = temperature optimum of the NADH oxidase; type: biochemical; conditions: FIG. 3
[4] = substrate: NC(=O)C1=CN([C@@H]2O[C@H](COP(=O)(O)OP(=O)(O)OC[C@H]3O[C@@H](n4cnc5c(N)ncnc54)[C@H](O)[C@@H]3O)[C@@H](O)[C@H]2O)C=CC1; test: purified protein, by the assay type; conditions: other: NADH varied 0.0013 to 0.52 mM, photometric, 340 nm, 30° C., 100 mM potassium phosphate pH 7.5, 1 mM DTT (standard test), enzyme purified by 4 chromatographic steps
[5] = NAD+ regeneration coupled with R-specific alcohol dehydrogenase recADHG37D, oxidation of (R,S)-phenylethanol, GC analysis; type: biochemical; conditions: 50 mM (R,S)-phenylethanol, 2 mM NADH, pH 7.0, 1 U recADHG37D and 2 U NADH oxidase, FIG. 4
Experimental: This may be necessary for example if NAD-dependent dehydrogenases are used for the oxidation, as has been shown in a general way hereinbefore (reaction scheme 1).
(R,S)-phenylethanol was used as alcohol, and the reaction was carried out as a batch reaction.
As a control the same experiment was carried out, but without the addition of NADH oxidase.

[6] = temperature stability of the NADH oxidase (storage at 30° C. and 42° C., residual activity); type: physicochemical
Experimental: In order to determine the temperature stability enzyme samples were stored at 30° C. and 42° C., samples were taken at various times, and the residual activity was measured. […] At 42° C. the enzyme deactivates initially (up to ca. 120 minutes) relatively quickly, following which it appears to be stable at ca. 50% residual activity over a relatively long time (at least 16 hours).

[7] = determination of the KM value for NADH; type: biochemical

Row | excess inhibition by NADH [1] | temperature of maximum activity [3] | oxidation of the R-alcohol of (R,S)-phenylethanol in the coupled reaction [5] | excess (substrate) inhibition at higher NADH concentrations ([7]; NADH up to 0.5 mM) | NADH concentration at which maximum activity is reached ([7]; NADH varied from 0.0013 to 0.52 mM) | Molecule | first stability optimum (pH) ([2]; 8 hours incubation, FIG. 2) | second stability optimum (pH) ([2]; 8 hours incubation, FIG. 2) | stability in the range pH 5.5-7.5 ([2]; 8 hours incubation, pH 5.5-7.5) | stability (residual activity) after 8 hours at pH 8.5 ([2]; pH 8.5, TEA/NaOH buffer as well as glycine/NaOH buffer, 8 hours) | Km [4] | time for which the enzyme is in practice stable ([6]; storage at 30° C.) | half-value time of deactivation ([6]; storage at 30° C., after ca. 400 minutes) | residual activity ([6]; storage at 42° C., after initial deactivation (up to ca. 120 minutes), stable for at least 16 hours)
1 | weak excess inhibition |  |  |  |  | NC(=O)C1=CN([C@@H]2O[C@H](COP(=O)(O)OP(=O)(O)OC[C@H]3O[C@@H](n4cnc5c(N)ncnc54)[C@H](O)[C@@H]3O)[C@@H](O)[C@H]2O)C=CC1 [NADH] |  |  |  |  |  |  |  | 
2 |  | 40 °C | almost completely oxidised | only a weak excess inhibition | 0.1 mM | NADH oxidase (NOX) from Lactobacillus brevis DSM 20054, wild type, SEQ ID NO:2 (Levilactobacillus brevis ATCC 367) (protein) MKVTVVGCTHAGTFAIKQILAEHPDAEVTVYERNDVISFLSCGIALYLGGKVADPQGLFYSSPEELQKLGANVQMNHNVLAIDPDQKTVTVEDLTSHAQTTESYDKLVMTSGSWPIVPKIPGIDSDRVKLCKNWAHAQALIEDAKEAKRITVIGAGYIGAELAEAYSTTGHDVTLIDAMDRVMPKYFDADFTDVIEQDYRDHGVQLALSETVESFTDSATGLTIKTDKNSYETDLAILCIGFRPNTDLLKGKVDMAPNGAIITDDYMRSSNPDIFAAGDSAAVHYNPTHQNAYIPLATNAVRQGILVGKNLVKPTVKYMGTQSSSGLALYDRTIVSTGLTLAAAKQQGVNAEQVIVEDNYRPEFMPSTEPVLMSLVFDPDTHRILGGALMSKYDVSQSANTLSVCIQNENTIDDLAMVDMLFQPNFDRPFNYLNILAQAAQAKVAQSVNA | 5.0 pH | 8.5 pH | moderately stable | up to 100% | 24 µM | ca. 400 minutes | ca. 18 hours | ca. 50%
